Data taken from patent publication US20230357364A1.

Target: SARS-CoV-2 spike D614G (pseudovirus) (SARS-CoV-2) (UniProt P0DTC2)
Assay: cell-based or functional assay

Substance	PSV in HeLa-ACE2 cells IC50 [µg/mL]
REGN10933 (antibody)	0.009
REGN10987 (antibody)	0.019
